Data as given in paper PMC11843475, “Taming interleukin‐12: Engineering of bispecific antibody‐based IL‐12 mimetics with biased agonism capacities” (Protein Science : A Publication of the Protein Society, 2025).

Biological target: T1, recombinant human (rh) His-tagged IL-12Rβ1 ECD (human, UniProt P42701 24-545)
T1 construct: Interleukin-12 receptor subunit beta-1, human, extracellular domain; Loaded on anti-Penta His (HIS1K) biosensors through its His tag; also called (rh) IL-12Rβ1; IL-12 receptor subunit β1; source: bought: Acro Biosystems (ILB-H52H9)
Assay: BLI; epitope binning / competition: 5 μg/mL His-tagged (rh) IL-12Rβ1 ECD loaded on HIS1K biosensors in PBS; first association 200 nM for 300 s, then second association 200 nM for 300 s with a 100 nM spike of the first molecule; kinetics buffer (PBS + 0.1% Tween-20, 1% BSA); 25°C, 1000 rpm; competition with rh IL-12 analysed in the same combinatorial manner
Conditions: both partners purified

B1: recombinant human (rh) IL-12 (complex)
chain 1: RNLPVATPDPGMFPCLHHSQNLLRAVSNMLQKARQTLEFYPCTSEEIDHEDITKDKTSTVEACLPLELTKNESCLNSRETSFITNGSCLASRKTSFMMALCLSSIYEDLKMYQVEFKTMNAKLLMDPKRQIFLDQNMLAVIDELMQALNFNSETVPQKSSLEEPDFYKTKIKLCILLHAFRIRAVTIDRVMSYLNAS
chain 2: IWELKKDVYVVELDWYPDAPGEMVVLTCDTPEEDGITWTLDQSSEVLGSGKTLTIQVKEFGDAGQYTCHKGGEVLSHSLLLLHKKEDGIWSTDILKDQKEPKNKTFLRCEAKNYSGRFTCWWLTTISTDLTFSVKSSRGSSDPQGVTCGAATLSAERVRGDNKEYEYSVECQEDSACPAAEESLPIEVMVDAVHKLKYENYTSSFFIRDIIKPDPPKNLQLKPLKNSRQVEVSWEYPDTWSTPHSYFSLTFCVQVQGKSKREKKDRVFTDKTSATVICRKNASISVRAQDRYYSSSWSEWASVPCS
notes: Interleukin-12 p35 alpha-subunit (IL12A), human; Interleukin-12 p40 beta-subunit (IL12B), human; Heterodimeric cytokine of p35 and p40; also called wild-type IL-12; interleukin-12; source: bought: Acro Biosystems
B1: binds.
